The values that follow come from PMC11339404.

Common to all, as to experiment: FRET
Data set [1] has as its target T1, SWSAP1-SWS1 (human, UniProt Q6NVH7;Q19AV6 1-250;1-140).
T1 sequence 1: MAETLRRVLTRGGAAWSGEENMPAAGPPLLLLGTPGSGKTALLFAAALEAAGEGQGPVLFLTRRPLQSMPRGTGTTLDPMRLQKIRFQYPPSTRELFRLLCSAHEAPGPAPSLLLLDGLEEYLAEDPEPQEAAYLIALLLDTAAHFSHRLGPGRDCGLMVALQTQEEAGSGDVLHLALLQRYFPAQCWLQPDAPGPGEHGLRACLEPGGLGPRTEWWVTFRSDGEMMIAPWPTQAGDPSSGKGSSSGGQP
T1 sequence 2: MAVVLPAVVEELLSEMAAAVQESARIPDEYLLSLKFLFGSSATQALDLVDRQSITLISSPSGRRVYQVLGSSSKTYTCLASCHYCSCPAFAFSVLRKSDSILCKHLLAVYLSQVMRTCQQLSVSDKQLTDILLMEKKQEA

Data set [2] addresses RPA (human, UniProt P27694;P15927;P35244 1-616;1-270;1-121).
In data set [3] the target is RAD51 (human, UniProt Q06609 1-339).
Data set [4] deals with RAD51;SWSAP1-SWS1 (human;human, UniProt Q06609;Q6NVH7;Q19AV6 1-339;1-250;1-140, |).
Sequence of RAD51;SWSAP1-SWS1 (Q06609 whole entry, one chain of several): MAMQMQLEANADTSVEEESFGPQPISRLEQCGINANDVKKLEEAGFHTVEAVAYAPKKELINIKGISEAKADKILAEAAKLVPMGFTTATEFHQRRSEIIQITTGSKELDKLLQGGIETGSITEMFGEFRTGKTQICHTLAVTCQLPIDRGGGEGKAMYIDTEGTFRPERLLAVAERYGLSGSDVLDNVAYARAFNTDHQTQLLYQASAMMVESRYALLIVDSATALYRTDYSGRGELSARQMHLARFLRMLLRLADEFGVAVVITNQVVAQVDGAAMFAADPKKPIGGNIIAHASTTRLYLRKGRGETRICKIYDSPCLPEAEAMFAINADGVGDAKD

Sequence of RAD51 (Q06609 whole entry): as the sequence (Q06609 whole entry, one chain of several) above
Sequence of RPA (P27694 whole entry, chain 1 of 3): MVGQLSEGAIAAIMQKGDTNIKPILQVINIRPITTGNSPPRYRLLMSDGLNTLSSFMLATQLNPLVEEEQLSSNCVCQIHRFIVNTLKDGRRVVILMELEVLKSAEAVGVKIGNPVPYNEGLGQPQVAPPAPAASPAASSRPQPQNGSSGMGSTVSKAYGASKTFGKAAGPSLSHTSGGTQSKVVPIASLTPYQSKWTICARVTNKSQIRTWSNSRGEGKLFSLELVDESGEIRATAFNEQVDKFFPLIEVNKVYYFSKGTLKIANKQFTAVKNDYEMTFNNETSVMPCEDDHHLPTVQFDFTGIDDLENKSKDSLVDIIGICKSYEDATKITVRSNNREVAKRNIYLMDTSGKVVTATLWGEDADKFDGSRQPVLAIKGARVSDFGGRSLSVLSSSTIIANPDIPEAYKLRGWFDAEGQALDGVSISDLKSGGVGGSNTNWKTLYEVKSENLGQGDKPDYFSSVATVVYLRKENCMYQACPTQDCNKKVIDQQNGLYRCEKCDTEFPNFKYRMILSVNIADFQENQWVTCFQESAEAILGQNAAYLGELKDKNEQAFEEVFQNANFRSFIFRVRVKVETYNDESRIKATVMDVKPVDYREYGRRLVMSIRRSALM
Sequence of RPA (P15927 whole entry, chain 2 of 3): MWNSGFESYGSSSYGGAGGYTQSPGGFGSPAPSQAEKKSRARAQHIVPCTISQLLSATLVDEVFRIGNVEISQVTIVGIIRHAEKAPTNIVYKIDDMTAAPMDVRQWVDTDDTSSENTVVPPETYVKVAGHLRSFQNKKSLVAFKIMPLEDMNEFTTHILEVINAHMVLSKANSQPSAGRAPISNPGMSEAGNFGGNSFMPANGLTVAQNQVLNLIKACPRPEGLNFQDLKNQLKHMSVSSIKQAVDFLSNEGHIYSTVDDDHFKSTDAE
Sequence of RPA (P35244 whole entry, chain 3 of 3): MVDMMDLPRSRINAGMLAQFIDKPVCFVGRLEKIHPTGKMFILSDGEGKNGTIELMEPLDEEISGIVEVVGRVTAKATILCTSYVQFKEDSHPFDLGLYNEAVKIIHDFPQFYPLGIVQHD

B1: Cy3-dT60-Cy5 (ssDNA)
DNA: TTTTTTTTTTTTTTTTTTTTTTTTTTTTTTTTTTTTTTTTTTTTTTTTTTTTTTTTTTTT
Regarding B1, the binding result is recorded as “no binding” in data set [1], “binds” in data set [2], “binds” in data set [3] and “binds” in data set [4].
